Key:
[1] = cryo-EM structure superimposition of subunits; settings: glycan lost; control: wild type
[2] = whole-cell patch clamp, CBX-sensitive current density, +80 mV; settings: glycan lost; control: wild type
[3] = target: the molecule itself; test: cryo-EM structure
[4] = target: the molecule itself; test: cryo-EM structure; remark: listed apart in the source

B1: Pannexin 1 (hsPANX1): N255A (protein)
parent chain: MAIAQLATEYVFSDFLLKEPTEPKFKGLRLELAVDKMVTCIAVGLPLLLISLAFAQEISIGTQISCFSPSSFSWRQAAFVDSYCWAAVQQKNSLQSESGNLPLWLHKFFPYILLLFAILLYLPPLFWRFAAAPHICSDLKFIMEELDKVYNRAIKAAKSARDLDMRDGACSVPGVTENLGQSLWEVSESHFKYPIVEQYLKTKKNSNNLIIKYISCRLLTLIIILLACIYLGYYFSLSSLSDEFVCSIKSGILRNDSTVPDQFQCKLIAVGIFQLLSVINLVVYVLLAPVVVYTLFVPFRQKTDVLKVYEILPTFDVLHFKSEGYNDLSLYNLFLEENISEVKSYKCLKVLENIKSSGQGIDPMLLLTNLGMIKMDVVDGKTPMSAEMREEQGNQTAELQGMNIDSETKANNGEKNARQRLLDSSC
Q: Which structure_or_conformation [1] does the source give for B1 here?
A: changes

Q: What about the “other: channel current” value [2] of the same protein?
A: changes

B2: glycosylation-deficient mutant N255A of human Pannexin 1 (N255A-hsPANX1) (natural protein, UniProt Q96RD7 1-426, looked up)
chain: MAIAQLATEYVFSDFLLKEPTEPKFKGLRLELAVDKMVTCIAVGLPLLLISLAFAQEISIGTQISCFSPSSFSWRQAAFVDSYCWAAVQQKNSLQSESGNLPLWLHKFFPYILLLFAILLYLPPLFWRFAAAPHICSDLKFIMEELDKVYNRAIKAAKSARDLDMRDGACSVPGVTENLGQSLWEVSESHFKYPIVEQYLKTKKNSNNLIIKYISCRLLTLIIILLACIYLGYYFSLSSLSDEFVCSIKSGILRADSTVPDQFQCKLIAVGIFQLLSVINLVVYVLLAPVVVYTLFVPFRQKTDVLKVYEILPTFDVLHFKSEGYNDLSLYNLFLEENISEVKSYKCLKVLENIKSSGQGIDPMLLLTNLGMIKMDVVDGKTPMSAEMREEQGNQTAELQGMNIDSETKANNGEKNARQRLLDSSC
Q: Which “ratio of gap junctions to hemichannels” value [3] does the source give for B2 here?
A: ~0.2 gap junctions : hemichannels

B3: wild type human Pannexin 1 (wt-hsPANX1) (natural protein, UniProt Q96RD7 1-426, looked up)
chain: MAIAQLATEYVFSDFLLKEPTEPKFKGLRLELAVDKMVTCIAVGLPLLLISLAFAQEISIGTQISCFSPSSFSWRQAAFVDSYCWAAVQQKNSLQSESGNLPLWLHKFFPYILLLFAILLYLPPLFWRFAAAPHICSDLKFIMEELDKVYNRAIKAAKSARDLDMRDGACSVPGVTENLGQSLWEVSESHFKYPIVEQYLKTKKNSNNLIIKYISCRLLTLIIILLACIYLGYYFSLSSLSDEFVCSIKSGILRNDSTVPDQFQCKLIAVGIFQLLSVINLVVYVLLAPVVVYTLFVPFRQKTDVLKVYEILPTFDVLHFKSEGYNDLSLYNLFLEENISEVKSYKCLKVLENIKSSGQGIDPMLLLTNLGMIKMDVVDGKTPMSAEMREEQGNQTAELQGMNIDSETKANNGEKNARQRLLDSSC
modifications: N-glycosylated at N255 (N-acetylglucosamine modelled)
Q: For B3, which “stoichiometry N” value [4] is on record?
A: 7

B4: caspase 7-cleaved human Pannexin 1 (ΔCTT-hsPANX1) (domain or fragment, UniProt Q96RD7 1-379, looked up)
chain: MAIAQLATEYVFSDFLLKEPTEPKFKGLRLELAVDKMVTCIAVGLPLLLISLAFAQEISIGTQISCFSPSSFSWRQAAFVDSYCWAAVQQKNSLQSESGNLPLWLHKFFPYILLLFAILLYLPPLFWRFAAAPHICSDLKFIMEELDKVYNRAIKAAKSARDLDMRDGACSVPGVTENLGQSLWEVSESHFKYPIVEQYLKTKKNSNNLIIKYISCRLLTLIIILLACIYLGYYFSLSSLSDEFVCSIKSGILRNDSTVPDQFQCKLIAVGIFQLLSVINLVVYVLLAPVVVYTLFVPFRQKTDVLKVYEILPTFDVLHFKSEGYNDLSLYNLFLEENISEVKSYKCLKVLENIKSSGQGIDPMLLLTNLGMIKMDVVD
Q: Does B4 bind [4]?
A: binds

— publication PMC7814660 (Nature, 2020)
